Measurements published in patent publication US20240288440A1 (MACFARLANE BURNET INSTITUTE FOR MEDICAL RESEARCH AND PUBLIC …, published 2024).

B1: chimeric secretory component (CSC) of the polymeric immunoglobulin receptor (receptor)
chain: QSSLLGPSSIFGPGEVNVLEGDSVSITCYYPTTSVTRHSRKFWCREEESGRCVTLASTGYTSQEYSGRGKLTDFPDKGEFVVTVDQLTQNDSGSYKCGVGVNGRGLDFGVNVLVSQKPELLNDTKVYTVDLGRTVTINCPFKTENAQKRKSLYKQIGLYPVLVIDSSGYVNPNYTGRIRLDIQGTGQLLFSVVINQLRLSDAGQYLCQAGDDSNSNKKNADLQVLKPEPELVYEDLRGSVTFHCALGPEVANVAKFLCRQSSGENCDVVVNTLGKRAPAFEGRILLNPQDKDGSFSVVITGLRKEDAGRYLCGAHSDGQLQEGSPIQAWQLFVNEESTIPRSPTVVKGVAGGSVAVLCPYNRKESKSIKYWCLWEGAQNGRCPLLVDSEGWVKAQYEGRLSLLEEPGNGTFTVILNQLTSRDAGFYWCLTNGDTLWRTTVEIKIIEGEPNLKVPGNVTAVLGETLKVPCHFPCKFSSYEKYWCKWNNTGCQALPSQDEGPSKAFVNCDENSRLVSLTLNLVTRADEGWYWCGVKQGHFYGETAAVYVAVEERKAAGSRDVSLAKADAAPDEKVLDSGFREIENKAIQDPRLFAEEKAVADTRDQADGSRASVDSGSSEEQGGSSRR
notes: also called R/HpIgR; chimeric pIgR; not shown: C-terminal 6 histidine tag

How the values were obtained:
[1] = molecular target: B1; experiment: lateral flow assay, CSC test line, detection with RBD-biotin/streptavidin gold
[2] = molecular target: purified IgG; experiment: pull-down on CSC beads, reducing SDS-PAGE, bands quantitated
[3] = molecular target: T1, purified IgM; experiment: as above
T1 construct: also called pentameric IgM

Binder	binding result [1]	percent bound [2]	percent bound [3]
CB6-IgA2 (monomeric chimeric IgA2 of monoclonal antibody CB6) (antibody, also called monomeric CB6-IgA2) heavy: ASEVQLVESGGGLVQPGGSLRLSCAASGFTVSSNYMSWVRQAPGKGLEWVSVIYSGGSTFYADSVKGRFTISRDNSMNTLFLQMNSLRAEDTAVYYCARVLPMYGDYLDYWGQGTLVTVSSASTKGPSVFPLAPSSKSTSGASPTSPKVFPLSLDSTPQDGNVVVACLVQGFFPQEPLSVTWSESGQNVTARNFPPSQDASGDLYTTSSQLTLPATQCPDGKSVTCHVKHYTNPSQDVTVPCPVPPPPPCCHPRLSLHRPALEDLLLGSEANLTCTLTGLRDASGATFTWTPSSGKSAVQGPPERDLCGCYSVSSVLPGCAQPWNHGETFTCTAAHPELKTPLTANITKSGNTFRPEVHLLPPPSEELALNELVTLTCLARGFSPKDVLVRWLQGSQELPREKYLTWASRQEPSQGTTTFAVTSILRVAAEDWKKGDTFSCMVGHEALPLAFTQKTIDRLAGKPTHVNVSVVMAEVDGTCY light: not shown	no binding (tested: 100 µg/ml)		
B1		~20%	~20%
